Data as given in publication PMC8498191, “Structural and Mechanistic Insights Into Dimethylsulfoxide Formation Through Dimethylsulfide Oxidation” (Frontiers in Microbiology, 2021).
Where a chain is given by its changes, count along the chain named. Names and notes keep the numbering of the source.

Experiments:
Tmm7211 [1] = target: T1, Tmm7211 (Candidatus Pelagibacter sp. HTCC7211, UniProt B6BQB2); assay: NADPH oxidation at […] nm; format: biochemical; settings: read-out: Apparent KM; 0.25 mM NADPH, 1 μM enzyme, 10 mM Tris-HCl pH 7.0, 100 mM NaCl
T1 construct: gene tmm; full-length synthesized gene (1335 bp, 444 residues, 52 kDa), N-terminal His tag (pET28a), E. coli BL21(DE3); Ni-NTA and Superdex-200
T1 sequence (B6BQB2 1-444): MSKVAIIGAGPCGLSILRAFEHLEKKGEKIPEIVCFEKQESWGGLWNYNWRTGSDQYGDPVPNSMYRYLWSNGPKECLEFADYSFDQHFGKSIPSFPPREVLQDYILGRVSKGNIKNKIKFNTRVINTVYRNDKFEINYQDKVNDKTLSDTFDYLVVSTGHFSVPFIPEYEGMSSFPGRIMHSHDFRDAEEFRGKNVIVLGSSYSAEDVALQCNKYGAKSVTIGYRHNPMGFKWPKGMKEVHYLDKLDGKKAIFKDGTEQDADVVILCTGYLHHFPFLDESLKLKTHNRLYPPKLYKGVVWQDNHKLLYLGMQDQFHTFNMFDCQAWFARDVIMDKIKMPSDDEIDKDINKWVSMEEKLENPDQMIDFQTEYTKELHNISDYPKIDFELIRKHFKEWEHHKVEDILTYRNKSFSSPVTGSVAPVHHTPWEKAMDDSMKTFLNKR

Tmm7211 [2] = target: T1, Tmm7211; assay: X-ray crystal structure, […] Å; format: binding
purified protein [3] = substrate: Cn1cc[nH]c1=S; assay: purified protein; settings: 0.25 mM NADPH, 1 μM enzyme, 10 mM Tris-HCl pH 7.0, 100 mM NaCl
purified protein [4] = substrate: CN(C)C; assay: purified protein; format: biochemical, Candidatus Pelagibacter sp. HTCC7211; settings: 0.25 mM NADPH, 1 μM enzyme, 10 mM Tris-HCl pH 7.0, 100 mM NaCl; pH 7.0
purified protein [5] = substrate: NC(=O)C1=CN([C@@H]2O[C@H](COP(=O)(O)OP(=O)(O)OC[C@H]3O[C@@H](n4cnc5c(N)ncnc54)[C@H](OP(=O)(O)O)[C@@H]3O)[C@@H](O)[C@H]2O)C=CC1; assay: purified protein; format: biochemical, Candidatus Pelagibacter sp. HTCC7211; settings: 1 mM DMS, 1.5 μM enzyme
purified protein [6] = substrate: CSC; assay: purified protein; format: biochemical, Candidatus Pelagibacter sp. HTCC7211; settings: 0.25 mM NADPH, 1 μM enzyme, 10 mM Tris-HCl pH 7.0, 100 mM NaCl; pH 7.0
[7] = target: the molecule itself; assay: SEC; analytical gel filtration on a calibrated Superose 6 column, 10 mM Tris-HCl (pH 8.0), 100 mM NaCl; apparent mass 95 kDa against 52 kDa calculated for the monomer

CNC [DMA] showed a Km (Tmm7211 [1]) of 181 ± 23.7 µM.

In the case of NC(=O)c1ccc[n+]([C@@H]2O[C@H](COP(=O)(O)OP(=O)(O)OC[C@H]3O[C@@H](n4cnc5c(N)ncnc54)[C@H](OP(=O)(O)O)[C@@H]3O)[C@@H](O)[C@H]2O)c1 [NADP^+], the “X-ray crystal structure, 1.8 Å” value (Tmm7211 [2]; crystallised with 5 mM NADPH) is reported as “the NADP^+ and FAD molecules can be clearly observed in the structure”.

For Cc1cc2nc3c(=O)[nH]c(=O)nc-3n(C[C@H](O)[C@H](O)[C@H](O)COP(=O)(O)OP(=O)(O)OC[C@H]3O[C@@H](n4cnc5c(N)ncnc54)[C@H](O)[C@@H]3O)c2cc1C [FAD], the “X-ray crystal structure, 1.8 Å” value (Tmm7211 [2]; FAD bound during expression in E. coli) was “the NADP^+ and FAD molecules can be clearly observed in the structure”.

B1: trimethylamine monooxygenase from Pelagibacter sp. HTCC7211 (Tmm_(7211)) (enzyme, UniProt B6BQB2 1-444, looked up)
chain: T1 sequence (B6BQB2 1-444)
notes: trimethylamine monooxygenase (Tmm, EC 1.14.13.148), a bacterial flavin-containing monooxygenase of the SAR11 bacterium Pelagibacter sp; HTCC7211; 1335-bp full-length tmm gene, synthesised; 444 amino acid residues, calculated mass 52 kDa; NADPH (5 mM) was added before crystallisation, and NADP+ and FAD are seen in the structure; Cloned in pET28a; also called WT Tmm_(7211); recombinant Tmm_(7211); …
In the case of B1, the Km (purified protein [3]) is reported as 116.2 ± 13.8 µM, the kcat (purified protein [3]) is reported as 0.0867 s⁻¹ and the kcat/Km (purified protein [3]) is reported as 747 M⁻¹ s⁻¹. For the same molecule, the Km (purified protein [4]) was 139.0 ± 10.7 µM, the kcat (purified protein [4]) was 0.373 ± 0.0133 s⁻¹ and the kcat/Km (purified protein [4]) was 2690 M⁻¹ s⁻¹. For the same molecule, the Km (purified protein [5]) was 12.8 ± 0.4 µM, the kcat (purified protein [5]) was 0.075 ± 0.005 s⁻¹ and the Km (purified protein [6]) was 250.5 ± 23.0 µM. For the same molecule, the kcat (purified protein [6]) was 0.075 ± 0.005 s⁻¹, the kcat/Km (purified protein [6]) was 300 M⁻¹ s⁻¹ and the “stoichiometry N” value [7] was 2.

B2: Tmm7211 (Candidatus Pelagibacter sp. HTCC7211; R409A) (protein)
chain: T1 sequence (B6BQB2 1-444) with R409A
notes: full-length synthesized gene (1335 bp, 444 residues, 52 kDa), N-terminal His tag (pET28a), E. coli BL21(DE3); Ni-NTA and Superdex-200
B2 gave a Km (purified protein [5]) of 44.9 ± 5.6 µM and a kcat (purified protein [5]) of 0.045 ± 0.00167 s⁻¹.

B3: Tmm7211 (Candidatus Pelagibacter sp. HTCC7211; N288A) (protein)
chain: T1 sequence (B6BQB2 1-444) with N288A
notes: as for B2
Work on B3 yielded a Km (purified protein [5]) of 61.1 ± 4.0 µM and a kcat (purified protein [5]) of 0.0217 ± 0.00167 s⁻¹.

B4: Tmm7211 (Candidatus Pelagibacter sp. HTCC7211; R226A) (protein)
chain: T1 sequence (B6BQB2 1-444) with R226A
notes: as for B2
Work on B4 yielded a Km (purified protein [5]) of 101.8 ± 8.6 µM and a kcat (purified protein [5]) of 0.015 ± 0.00167 s⁻¹.

B5: Tmm7211 (Candidatus Pelagibacter sp. HTCC7211; D314A) (protein)
chain: T1 sequence (B6BQB2 1-444) with D314A
notes: as for B2
Work on B5 yielded a Km (purified protein [5]) of 32.0 ± 0.6 µM and a kcat (purified protein [5]) of 0.035 ± 0.00167 s⁻¹.

B6: Tmm7211 (Candidatus Pelagibacter sp. HTCC7211; D314E) (protein)
chain: T1 sequence (B6BQB2 1-444) with D314E
notes: as for B2
In the case of B6, the Km (purified protein [5]) is reported as 9.7 ± 0.5 µM and the kcat (purified protein [5]) is reported as 0.0867 ± 0.00333 s⁻¹.

B7: Tmm7211 (Candidatus Pelagibacter sp. HTCC7211; N72A) (protein)
chain: T1 sequence (B6BQB2 1-444) with N72A
notes: as for B2
In the case of B7, the Km (purified protein [5]) is reported as 34.1 ± 1.0 µM and the kcat (purified protein [5]) is reported as 0.0317 ± 0.00333 s⁻¹.

B8: Tmm7211 (Candidatus Pelagibacter sp. HTCC7211; H227A) (protein)
chain: T1 sequence (B6BQB2 1-444) with H227A
notes: as for B2
B8 showed a Km (purified protein [5]) of 41.2 ± 2.3 µM and a kcat (purified protein [5]) of 0.0417 ± 0.00333 s⁻¹.

B9: Tmm7211 (Candidatus Pelagibacter sp. HTCC7211; S203A) (protein)
chain: T1 sequence (B6BQB2 1-444) with S203A
notes: as for B2
Work on B9 yielded a Km (purified protein [5]) of 134.8 ± 11.1 µM and a kcat (purified protein [5]) of 0.0167 ± 0.00167 s⁻¹.
